Results published in US20070037861A1, “Enhanced method of treatment of growth disorders” (PFIZER HEALTH AB, priority 2003, published 2007).
Read-outs that look alike come from different tables or passages of the source.

Assays:
[1] = animal model; without adverse effects on body weight and adipose tissue mass; cited from earlier work
[2] = by inhibition of lipolysis; cited from earlier work
[3] = overnight administration; lean and obese nondiabetic subjects, impaired glucose tolerance or type 2 diabetes; cited from earlier work
rat prolactin receptor = molecular target: T1, rat prolactin receptor (Rattus norvegicus, UniProt P05710); settings: cited from earlier work
T1 construct: host or cells: rat hepatocytes
T1 sequence (P05710 20-310 isoform P05710-3 limits assumed): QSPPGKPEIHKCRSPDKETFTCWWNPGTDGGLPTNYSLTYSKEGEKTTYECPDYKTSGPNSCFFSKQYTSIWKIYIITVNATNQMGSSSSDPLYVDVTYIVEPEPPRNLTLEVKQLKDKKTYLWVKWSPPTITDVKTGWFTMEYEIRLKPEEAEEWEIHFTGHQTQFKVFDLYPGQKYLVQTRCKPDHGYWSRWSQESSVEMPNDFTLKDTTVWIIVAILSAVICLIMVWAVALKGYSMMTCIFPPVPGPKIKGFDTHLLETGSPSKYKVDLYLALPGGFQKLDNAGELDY

GH receptors = molecular target: T2, GH receptors (Rattus norvegicus, UniProt P16310); settings: cited from earlier work
T2 construct: host or cells: rat hepatocytes
T2 sequence (P16310 19-638): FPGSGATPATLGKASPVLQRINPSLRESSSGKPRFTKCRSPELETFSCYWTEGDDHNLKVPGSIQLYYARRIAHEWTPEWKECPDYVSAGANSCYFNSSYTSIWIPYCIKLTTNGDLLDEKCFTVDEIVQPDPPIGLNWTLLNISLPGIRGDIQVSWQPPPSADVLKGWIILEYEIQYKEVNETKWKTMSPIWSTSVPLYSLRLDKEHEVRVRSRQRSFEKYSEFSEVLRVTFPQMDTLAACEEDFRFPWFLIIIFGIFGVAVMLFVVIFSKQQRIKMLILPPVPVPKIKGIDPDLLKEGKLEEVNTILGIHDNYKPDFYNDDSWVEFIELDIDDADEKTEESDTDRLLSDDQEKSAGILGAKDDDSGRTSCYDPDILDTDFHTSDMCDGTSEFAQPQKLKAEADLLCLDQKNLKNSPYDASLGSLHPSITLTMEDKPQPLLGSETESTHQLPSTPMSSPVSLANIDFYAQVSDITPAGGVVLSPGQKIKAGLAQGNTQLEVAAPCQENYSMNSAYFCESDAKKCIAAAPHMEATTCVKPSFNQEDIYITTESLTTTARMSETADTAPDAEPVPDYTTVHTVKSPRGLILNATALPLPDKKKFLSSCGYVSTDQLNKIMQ

plasma glucose = experiment: Fasting plasma glucose; type: in vivo, Wistar rats; settings: compared to controls
Experimental: (§1) Blood samples were collected following overnight fast. Samples were collected from the tail vein and at termination following decapitation under halothane anaesthetic. Blood samples were collected into heparinised tubes and centrifuged for harvesting of plasma. Blood samples were then analysed for insulin, glucose, FFAs, leptin, IGF-I, glycerol, triglycerides, cholesterol, corticosterone, markers of hepatic function (ALT, AST, ALP), and for markers of protein synthesis.
(§2) Plasma FFAs, triglycerides and glycerol were measured by diagnostic kit (Boehringer-Mannheim #1383175 and Sigma #337 respectively). Plasma leptin, insulin were measured using commercially available kits (inco, St Charles, Mo., US). Plasma IGF-I was measured by RIA as described previously (Vickers et al., 2000). Plasma glucose concentrations were measured using a colorimetric plate assay. All other plasma analytes (liver enzymes, electrolytes, etc.) were measured by a BM/Hitachi 737 analyser by Agriquality Laboratory Services (Auckland, New Zealand).

[4] = Tissue studies: organ and fat depot weights at termination; type: in vivo, Wistar rats
Experimental: At termination animals were sacrificed by decapitation under halothane anaesthesia. Tissues (heart, liver, muscle and adipose (subcutaneous and visceral)) were collected, weighed and snap frozen in liquid nitrogen for subsequent analysis. An aliquot of liver tissue was also frozen at −20° C. for examining the growth hormone receptor using ligand-binding analysis.

[5] = Tibial bone length, area and density by pQCT post-mortem; type: in vivo, Wistar rats; settings: for Fisher's PLSD for TRABECULAR, Mean Diff.: effect: treatment, significance level 5%
Experimental: (§3) Body lengths (nose-anus and nose-tail) and bone length (tibial, femoral length) was assessed post-mortem using peripheral quantitative computed tomography (PQCT, Stratec) analysis. Bone density was also assessed via pQCT.
Tibias were stored in 10% neutral buffered formalin. Tissue was stripped from the bone and bone length, area and density (cortical and trabecular) was assessed using pQCT (Stratec). […] Tibial length was highly correlated with total body (nose-anus) length (FIG. 5).

plasma leptin = experiment: Plasma leptin; type: in vivo, Wistar rats; settings: compared to saline animals and animals that received GH and fibrate
Experimental: as §1, §2

plasma IGF-I = experiment: Plasma IGF-I by RIA; type: in vivo, Wistar rats; settings: compared to saline controls; AD and SGA animals; at time of sacrifice
Experimental: as §1, §2

[6] = Blood hematocrit (marker of plasma volume / fluid retention); type: in vivo, Wistar rats; settings: compared to saline; AD and SGA groups
Text: A well-characterised effect of GH treatment is increased plasma volume (Johannsson et al, 2002). Decrease in blood hematocrit is a reliable marker of increase in plasma volume associated with fluid retentive effects of GH therapy.

[7] = Systolic blood pressure by tail cuff plethysmography; type: in vivo, Wistar rats; settings: SGA offspring
Experimental: Systolic and diastolic blood pressure and heart rate were recorded by tail cuff plethysmography according to the manufacturer's instructions (Blood pressure analyser IITC, Life Science, Woodland Hills, Calif., USA). Rats were restrained in a clear plastic tube in a heated room (25-28° C.). After 10-15 minutes acclimatisation the cuff was placed on the tail and inflated to 240 mmHg. Pulses were recorded during deflation at a rate of 3 mmHg/sec and reappearance of a pulse was used to determine systolic blood pressure. A minimum of 3 clear systolic blood pressure recordings were taken per animal. Previous observations indicate that the coefficient of variation for repeated measurements is <5%.

plasma triglycerides = experiment: Plasma triglycerides; type: in vivo, Wistar rats; settings: compared to saline controls
Experimental: as §1, §2

[8] = Body lengths (nose-anus) post-mortem and BMI; type: in vivo, Wistar rats
Experimental: as §3
A BMI was calculated using: body weight/nose-anus length (cm)2. […] Due to the lack of lipolysis in the GH and acipimox treated animals compared to GH treated, alterations in BMI probably reflect an enhancement of liner growth above that of GH alone.

Q: With `CCCCCCCN(CCc1ccc(SC(C)(C)C(=O)O)cc1)C(=O)Nc1ccc(F)cc1F` [GW9578] as the molecule, how does the insulin resistance [1] read?
A: reduce insulin resistance

Q: What does the source list for `Cc1cnc(C(=O)O)c[n+]1[O-]` [acipimox, 5-methylpyrazinecarboxylic acid 4-oxide]?
A: GH induced insulin resistance [2]: partially prevent; insulin resistance [3]: reduce insulin resistance; plasma FFA levels [3]: lower plasma FFA levels

Q: For `CC(C)(Oc1ccc(C2CC2(Cl)Cl)cc1)C(=O)O` (stereo not shown) [ciprofibrate], which insulin resistance [1] is on record?
A: reduce insulin resistance

Q: What does the source list for “hGH: human growth hormone, lactogenic and somatogenic in the rat”?
A: binding to prolactin receptor (lactogenic binding sites) (rat prolactin receptor): binding to both prolactin receptors and GH receptors; binding to GH receptors (somatogenic binding sites) (GH receptors): binding to both prolactin receptors and GH receptors

B1: GH: Recombinant bovine growth hormone, a pure somatogen in the rat, given subcutaneously at 5 mg/kg/day (protein, UniProt P01246 27-217, looked up)
Somatotropin: AFPAMSLSGLFANAVLRAQHLHQLAADTFKEFERTYIPEGQRYSIQNTQVAFCFSETIPAPTGKNEAQQKSDLELLRISLLLIQSWLGPLQFLSRVFTNSLVFGTSDRVYEKLKDLEEGILALMRELEDGTPRAGQILKQTYDKFDTNMRSDDALLKNYGLLSCFRKDLHKTETYLRVMKCRRFGEASCAF
Q: Which results are given for B1?
A: binding to prolactin receptor (lactogenic binding sites) (rat prolactin receptor): not a ligand; Fasting plasma glucose (plasma glucose): not significantly altered; Relative kidney weight ([4]; compared to saline controls): reduced; retroperitoneal fat mass ([4]; compared to saline controls): significantly reduced; Relative liver weight ([4]; relative to body weight, AD and SGA animals): no effect; Total bone density ([5]; pQCT): trend (p=0.056) towards to drop; trabecular bone mass ([5]; pQCT, AD and SGA animals): significantly reduced; Tibial length ([5]; pQCT, effect of treatment, AD and SGA): significantly increased; Fisher's PLSD for TRABECULAR, Mean Diff. ([5]; versus GH/ACIP): −4.381; Fisher's PLSD for TRABECULAR, Mean Diff. ([5]; versus GH/FIB): −10.613; Fisher's PLSD for TRABECULAR, Mean Diff. ([5]; versus SALINE): −14.137; plasma leptin (plasma leptin): elevated; Plasma IGF-I (plasma IGF-I): significantly increased; blood plasma hematocrit [6]: significantly reduced; systolic blood pressure [7]: significantly reduced and normalised; Plasma triglycerides (plasma triglycerides): no significant effect; BMI ([8]; compared to saline): not significantly different; Nose anus lengths ([8]; post-mortem, effect of treatment): significantly increased
